Substitutions are numbered along the chain they refer to. Names and notes keep the numbering of the source.

Data set [1] deals with the molecule itself. In words: cryo-EM structure; apo-GLS2, 5 µM, no substrate or activator; single particle, C2 symmetry; step: subunits in the tetramer.
Data set [2] deals with the molecule itself. As to the kind of experiment: cryo-EM structure; GLS2 5 µM with 30 µM inhibitor 968 in 2% DMSO; 2D classification, dimer classes kept, 3.65 Å map, model not built.
Data set [3] concerns the molecule itself. As to the kind of experiment: negative stain electron microscopy; glutaminase 1 µM with glutamine 20 mM and inorganic phosphate (50-200 mM), RT, 30 s to 1 min after mixing (GAC Y466W with DMSO also 30 min); step: tetramers to filament.

B1: human liver-type glutaminase GLS2, wild type, without the mitochondrial localization sequence (residue 38-602) (enzyme, UniProt Q9UI32 38-602, looked up)
chain: HHLSEAAAQGRETPHSHQPQHQDHDSSESGMLSRLGDLLFYTIAEGQERIPIHKFTTALKATGLQTSDPRLRDCMSEMHRVVQESSSGGLLDRDLFRKCVSSNIVLLTQAFRKKFVIPDFEEFTGHVDRIFEDVKELTGGKVAAYIPQLAKSNPDLWGVSLCTVDGQRHSVGHTKIPFCLQSCVKPLTYAISISTLGTDYVHKFVGKEPSGLRYNKLSLNEEGIPHNPMVNAGAIVVSSLIKMDCNKAEKFDFVLQYLNKMAGNEYMGFSNATFQSEKETGDRNYAIGYYLKEKKCFPKGVDMMAALDLYFQLCSVEVTCESGSVMAATLANGGICPITGESVLSAEAVRNTLSLMHSCGMYDFSGQFAFHVGLPAKSAVSGAILLVVPNVMGMMCLSPPLDKLGNSHRGTSFCQKLVSLFNFHNYDNLRHCARKLDPRREGAEIRNKTVVNLLFAAYSGDVSALRRFALSAMDMEQKDYDSRTALHVAAAEGHIEVVKFLIEACKVNPFAKDRWGNIPLDDAVQFNHLEVVKLLQDYQDSYTLSETQAEAAAEALSKENLESMV
notes: Tetramer in the apo state (cryo-EM); tetramers stack into filaments with glutamine and Pi; also called LGA; apo-GLS2; source: E. coli BL21 (DE3), purified (Co2+ TALON resin, HiTrap Q anion exchange, Superdex 200 SEC)
As to B1, the “stoichiometry N” value in data set [1] turned out to be 4; in data set [2] it was 2.

B2: human GLS2 (N308A) mutant (enzyme, UniProt Q9UI32 38-602, looked up)
chain: B1 chain with N271A
notes: liver-type glutaminase GLS2, human, residues 38-602, with N308A in the tetramer-tetramer (filament) interface; source: E. coli BL21 (DE3), purified (Co2+ TALON resin, HiTrap Q anion exchange, Superdex 200 SEC)
Regarding B2, the “stoichiometry N” value in data set [3] worked out at 4.

As usually defined, the stoichiometry N is the number of molecules, sites or subunits per partner or assembly.
